Test results: the supplement of paper PMC7125110
± gives the standard error. Variants at the floor of the assay were thinned out.

B1: glmS ribozyme (parent)
chain: AUAAAAGCGCCAGAACUACAGAAAUGUAGUUGACGAGGAGGAGGUUUAUCGAAUUUUCGGCGGAUGCCUCCAAA

Experiments:
Conditions in all cases: with glucosamine-6-phosphate
[1] = variants of: B1; assay: self-cleavage kobs at 640 uM GlcN6P; higher = faster cleavage; RNA array
Procedure, shortened: (§1)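 Ribozyme variants carrying barcodes were transcribed in situ on sequenced MiSeq chips by E. coli RNA polymerase and tracked at 37 °C with a hybridised Cy3 probe. They were exposed to 40 μM to 10 mM glucosamine-6-phosphate in HEPES/KCl/Mg(OAc)2 buffer. kobs came from exponential decay fits of normalised per-tile medians, and kcat and KM from weighted Michaelis–Menten fits.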

[2] = variants of: B1; assay: self-cleavage kobs at 2500 uM GlcN6P; higher = faster cleavage; RNA array
Procedure, shortened: as §1

[3] = variants of: B1; assay: self-cleavage kobs at 10000 uM GlcN6P; higher = faster cleavage; RNA array
Procedure, shortened: as §1

Row | Variant | self-cleavage kobs at 640 uM GlcN6P [1] | self-cleavage kobs at 2500 uM GlcN6P [2] | self-cleavage kobs at 10000 uM GlcN6P [3]
1 | AUAAAAGCGCCAGAACUACAGAAAUGUACUUGACGAGGAGGAUGUUUGUCGAAUUUUCGGCGGAUGCCUCAAAA [G29C G43U A48G C71A] | < 1e-05 s⁻¹ | < 1e-05 s⁻¹ | –
2 | AUAAAAGCGCCAGAACUACAGAAAUGUAAUUGACGAGGAGGAGUUUUAUCGAAUUUUCGGCGGACGCCUCCAAA [G29A G44U U65C] | < 1e-05 s⁻¹ | < 1e-05 s⁻¹ | –
3 | AUAAAAGCGCCAGAACUACAGAAAUGUACUUGACGAGGAGGAGCUUUAUCGAAUUUUCGGCGGAUGGCUCCAAA [G29C G44C C67G] | 0.000127 ± 3.8e-05 s⁻¹ | 0.000256 ± 0.00011 s⁻¹ | –
4 | AUAAAAGCGCCAGAACUACAGAAAUGUACUUGACGAUGAGGAGGUAUAUCGAAUUUUCGGCGGAUGCCUCCAAA [G29C G37U U46A] | < 1e-05 s⁻¹ | < 1e-05 s⁻¹ | < 1e-05 s⁻¹
5 | AUAAAAGCGCCAGAACUACAGAAAUGUAAUUGACGAGGAGGAGGUUUAACGAGUUUUCGGCGGAUGCAUCCAAA [G29A U49A A53G C68A] | 7.05e-05 ± 2.9e-05 s⁻¹ | – | –
6 | AUAAAAGCGCCAGAACUACAGAAAUGUACUUGACGAGGCGGAGGUUUAUCGAAUUUUCGGGGGAUGCCUCCAAA [G29C A39C C61G] | < 1e-05 s⁻¹ | – | –
7 | AUAAAAGCGCCAGAACUACAGAAAUGUACUUGACGAGUUGGAGGUUUAUAGAAUUUUCGGCGGAUGCCUCCAAA [G29C G38U A39U C50A] | < 1e-05 s⁻¹ | < 1e-05 s⁻¹ | –
8 | AUAAAAGCGCCAGAACUACAGAAAUGUACUUGACGAGGAGGAUGUUUAUCGAAUUUGCGGCGGAUGCCUCCAAA [G29C G43U U57G] | < 1e-05 s⁻¹ | – | –
9 | AUAAAAGCGCCAGAACUACAGAAAUGUAAGUGACGAGGAGGAGGUUUAUCGGAUUUUCGGCGGAUGCCUCCAAA [G29A U30G A52G] | 7.23e-05 ± 1.9e-05 s⁻¹ | 0.000399 ± 9.4e-05 s⁻¹ | –
10 | AUAAAAGCGCCAGAACUACAGAAAUGUAAUUAACGAGGAGGAGGUUUAUCGAAUUUCCGGCGGAUGCCCCCAAA [G29A G32A U57C U69C] | 9.71e-05 ± 3.8e-05 s⁻¹ | – | –
11 | AUAAAAGCGCCAGAACUACAGAAAUGUACUUGACGAGGAGGAGGUUUAUCUAAUUUUCGGCGGAUGCCUCCAAA [G29C G51U] | < 1e-05 s⁻¹ | – | –
12 | AUAAAAGCGCCAGAACUACAGAAAUGUAAUUGACGAGGACGAGGUUUAUCGAAUUUUCGGCGGAUGCCUCCAAA [G29A G40C] | 5.68e-05 ± 1.5e-05 s⁻¹ | 0.000243 ± 4.7e-05 s⁻¹ | –
13 | AUAAAAGCGCCAGAACUACAGAAAUGUACUUGACGAGGAGGAGGUUUAUCGAAUGUUCGGCGGAUGCCUCCAAA [G29C U55G] | 0.000107 ± 1.3e-05 s⁻¹ | 0.000164 ± 2.5e-05 s⁻¹ | 0.000757 ± 9.6e-05 s⁻¹
14 | AUAAAAGCGCCAGAACUACAGAAAUGUACUUGACGAGGAGGAGGUUUAUCGAAUUUUCGGCGGAGGGCUCCAAA [G29C U65G C67G] | 0.000341 ± 0.00016 s⁻¹ | – | –
15 | AUAAAAGCGCCAGAACUACAGAAAUGUAAUUGACGAGGAGGAGGGUUAUCGAAUUUUCGGCGGAUGCCUCCAAA [G29A U45G] | 0.000156 ± 4.7e-05 s⁻¹ | 0.000503 ± 0.00012 s⁻¹ | –
16 | AUAAAAGCGCCAGAACUACAGAAAUGUAAUUGACUAGGAGGUGGUUUAUCGAAUUUUCGGCGGAUGCCUCCAAA [G29A G35U A42U] | < 1e-05 s⁻¹ | < 1e-05 s⁻¹ | < 1e-05 s⁻¹
17 | AUAAAAGCGCCAGAACUACAGAAAUGUACCUGACGAGGAGGAGGUUUAGCGAAUUUUCGGCGGAUGCCUCCAAA [G29C U30C U49G] | < 1e-05 s⁻¹ | – | < 1e-05 s⁻¹
18 | AUAAAAGCGCCAGAACUACAGAAAUGUAAUUGACUAGGAGGAGGUUUAUCGAAUUUUCGGCGGAUGCCUCCAAA [G29A G35U] | < 1e-05 s⁻¹ | < 1e-05 s⁻¹ | < 1e-05 s⁻¹
19 | AUAAAAGCGCCAGAACUACAGAAAUGUACUUGACGAGGAGGCGGUUUCUCGAAUUUUCGGCGGAUGCCUCCAAA [G29C A42C A48C] | < 1e-05 s⁻¹ | – | –
20 | AUAAAAGCGCCAGAACUACAGAAAUGUACGUGUCGAGGAGGAGGUUUAUCGAAUUUUUGGCGGAUGCCUCCAAA [G29C U30G A33U C58U] | < 1e-05 s⁻¹ | < 1e-05 s⁻¹ | –
